From patent US20090099029

B1: PRKD2(PKD2) (protein)
chain: MATAPSYPAGLPGSPGPGSPPPPGGLELQSPPPLLPQIPAPGSGVSFHIQIGLTREFVLLPAASELAHVKQLACSIVDQKFPECGFYGLYDKILLFKHDPTSANLLQLVRSSGDIQEGDLVEVVLSASATFEDFQIRPHALTVHSYRAPAFCDHCGEMLFGLVRQGLKCDGCGLNYHKRCAFSIPNNCSGARKRRLSSTSLASGHSVRLGTSESLPCTAEELSRSTTELLPRRPPSSSSSSSASSYTGRPIELDKMLLSKVKVPHTFLIHSYTRPTVCQACKKLLKGLFRQGLQCKDCKFNCHKRCATRVPNDCLGEALINGDVPMEEATDFSEADKSALMDESEDSGVIPGSHSENALHASEEEEGEGGKAQSSLGYIPLMRVVQSVRHTTRKSSTTLREGWVVHYSNKDTLRKRHYWRLDCKCITLFQNNTTNRYYKEIPLSEILTVESAQNFSLVPPGTNPHCFEIVTANATYFVGEMPGGTPGGPSGQGAEAARGWETAIRQALMPVILQDAPSAPGHAPHRQASLSISVSNSQIQENVDIATVYQIFPDEVLGSGQFGVVYGGKHRKTGRDVAVKVIDKLRFPTKQESQLRNEVAILQSLRHPGIVNLECMFETPEKVFVVMEKLHGDMLEMILSSEKGRLPERLTKFLITQILVALRHLHFKNIVHCDLKPENVLLASADPFPQVKLCDFGFARIIGEKSFRRSVVGTPAYLAPEVLLNQGYNRSLDMWSVGVIMYVSLSGTFPFNEDEDINDQIQNAAFMYPASPWSHISAGAIDLINNLLQVKMRKRYSVDKSLSHPWLQEYQTWLDLRELEGKMGERYITHESDDARWEQFAAEHPLPGSGLPTDRDLGGACPPQDHDMQGLAERISVL
B2: PRKCI (protein)
chain: MPTQRDSSTMSHTVAGGGSGDHSHQVRVKAYYRGDIMITHFEPSISFEGLCNEVRDMCSFDNEQLFTMKWIDEEGDPCTVSSQLELEEAFRLYELNKDSELLIHVFPCVPERPGMPCPGEDKSIYRRGARRWRKLYCANGHTFQAKRFNRRAHCAICTDRIWGLGRQGYKCINCKLLVHKKCHKLVTIECGRHSLPQEPVMPMDQSSMHSDHAQTVIPYNPSSHESLDQVGEEKEAMNTRESGKASSSLGLQDFDLLRVIGRGSYAKVLLVRLKKTDRIYAMKVVKKELVNDDEDIDWVQTEKHVFEQASNHPFLVGLHSCFQTESRLFFVIEYVNGGDLMFHMQRQRKLPEEHARFYSAEISLALNYLHERGIIYRDLKLDNVLLDSEGHIKLTDYGMCKEGLRPGDTTSTFCGTPNYIAPEILRGEDYGFSVDWWALGVLMFEMMAGRSPFDIVGSSDNPDQNTEDYLFQVILEKQIRIPRSLSVKAASVLKSFLNKDPKERLGCHPQTGFADIQGHPFFRNVDWDMMEQKQVVPPFKPNISGEFGLDNFDSQFTNEPVQLTPDDDDIVRKIDQSEFEGFEYINPLLMSAEECV
B3: EPHB3 (protein)
chain: CLRKQRHGSDSEYTEKLQQYIAPGMKVYIDPFTYEDPNEAVREFAKEIDVSCVKIEEVIGAGEFGEVCRGRLKQPGRREVFVAIKTLKVGYTERQRRDFLSEASIMGQFDHPNIIRLEGVVTKSRPVMILTEFMENCALDSFLRLNDGQFTVIQLVGMLRGIAAGMKYLSEMNYVHRDLAARNILVNSNLVCKVSDFGLSRFLEDDPSDPTYTSSLGGKIPIRWTAPEAIAYRKFTSASDVWSYGIVMWEVMSYGERPYWDMSNQDVINAVEQDYRLPPPMDCPTALHQLMLDCWVRDRNLRPKFSQIVNTLDKLIRNAASLKVIASAQSGMSQPLLDRTVPDYTTFTTVGDWLDAIKMGRYKESFVSAGFASFDLVAQMTAEDLLRIGVTLAGHQKKILSSIQDMRLQMNQTLPVQV
B4: PRKCE (protein)
chain: MVVFNGLLKIKICEAVSLKPTAWSLRHAVGPRPQTFLLDPYIALNVDDSRIGQTATKQKTNSPAWHDEFVTDVCNGRKIELAVFHDAPIGYDDFVANCTIQFEELLQNGSRHFEDWIDLEPEGRVYVIIDLSGSSGEAPKDNEERVFRERMRPRKRQGAVRRRVHQVNGHKFMATYLRQPTYCSHCRDFIWGVIGKQGYQCQVCTCVVHKRCHELIITKCAGLKKQETPDQVGSQRFSVNMPHKFGIHNYKVPTFCDHCGSLLWGLLRQGLQCKVCKMNVHRRCETNVAPNCGVDARGIAKVLADLGVTPDKITNSGQRRKKLIAGAESPQPASGSSPSEEDRSKSAPTSPCDQEIKELENNIRKALSFDNRGEEHRAASSPDGQLMSPGENGEVRQGQAKRLGLDEFNFIKVLGKGSFGKVMLAELKGKDEVYAVKVLKKDVILQDDDVDCTMTEKRILALARKHPYLTQLYCCFQTKDRLFFVMEYVNGGDLMFQIQRSRKFDEPRSRFYAAEVTSALMFLHQHGVIYRDLKLDNILLDAEGHCKLADFGMCKEGILNGVTTTTFCGTPDYIAPEILQELEYGPSVDWWALGVLMYEMMAGQPPFEADNEDDLFESILHDDVLYPVWLSKEAVSILKAFMTKNPHKRLGCVASQNGEDAIKQHPFFKEIDWVLLEQKKIKPPFKPRIKTKRDVNNFDQDFTREEPVLTLVDEAIVKQINQEEFKGFSYFGEDLMP
B5: PRKD1(PKD) (protein)
chain: MSAPPVLRPPSPLLPVAAAAAAAAAALVPGSGPGPAPFLAPVAAPVGGISFHLQIGLSREPVLLLQDSSGDYSLAHVREMACSIVDQKFPECGFYGMYDKILLFRHDPTSENILQLVKAASDIQEGDLIEVVLSASATFEDFQIRPHALFVHSYRAPAFCDHCGEMLWGLVRQGLKCEGCGLNYHKRCAFKIPNNCSGVRRRRLSNVSLTGVSTIRTSSAELSTSAPDEPLLQKSPSESFIGREKRSNSQSYIGRPIHLDKILMSKVKVPHTFVIHSYTRPTVCQYCKKLLKGLFRQGLQCKDCRFNCHKRCAPKVPNNCLGEVTINGDLLSPGAESDVVMEEGSDDNDSERNSGLMDDMEEAMVQDAEMAMAECQNDSGEMQDPDPDHEDANRTISPSTSNNIPLMRVVQSVKHTKRKSSTVMKEGWMVHYTSKDTLRKRHYWRLDSKCITLFQNDTGSRYYKEIPLSEILSLEPVKTSALIPNGANPHCFEITTANVVYYVGENVVNPSSPSPNNSVLTSGVGADVARMWEIAIQHALMPVIPKGSSVGTGTNLHRDISVSISVSNCQIQENVDISTVYQIFPDEVLGSGQFGIVYGGKHRKTGRDVAIKIIDKLRFPTKQESQLRNEVAILQNLHHPGVVNLECMFETPERVFVVMEKLHGDMLEMILSSEKGRLPEHITKFLITQILVALRHLHFKNIVHCDLKPENVLLASADPFPQVKLCDFGFARIIGEKSFRRSVVGTPAYLAPEVLRNKGYNRSLDMWSVGVIIYVSLSGTFPFNEDEDIHDQIQNAAFMYPPNPWKEISHEAIDLINNLLQVKMRKRYSVDKTLSHPWLQDYQTWLDLRELECKIGERYITHESDDLRWEKYAGEQGLQYPTHLINPSASHSDTPETEETEMKALGERVSIL
B6: EPHB2 (protein)
chain: CNRRGFERADSEYTDKLQHYTSGHMTPGMKIYIDPFTYEDPNEAVREFAKEIDISCVKIEQVIGAGEFGEVCSGHLKLPGKREIFVAIKTLKSGYTEKQRRDFLSEASIMGQFDHPNVIHLEGVVTKSTPVMIITEFMENGSLDSFLRQNDGQFTVIQLVGMLRGIAAGMKYLADMNYVHRDLAARNILVNSNLVCKVSDFGLSRFLEDDTSDPTYTSALGGKIPIRWTAPEAIQYRKFTSASDVWSYGIVMWEVMSYGERPYWDMTNQDVINAIEQDYRLPPPMDCPSALHQLMLDCWQKDRNHRPKFGQIVNTLDKMIRNPNSLKAMAPLSSGINLPLLDRTIPDYTSFNTVDEWLEAIKMGQYKESFANAGFTSFDVVSQMMMEDILRVGVTLAGHQKKILNSIQVMRAQMNQIQSVEV
B7: PRKCZ (protein)
chain: MPSRTGPKMEGSGGRVRLKAHYGGDIFITSVDAATTFEELCEEVRDMCRLHQQHPLTLKWVDSEGDPCTVSSQMELEEAFRLARQCRDEGLIIHVFPSTPEQPGLPCPGEDKSIYRRGARRWRKLYRANGHLFQAKRFNRRAYCGQCSERIWGLARQGYRCINCKLLVHKRCHGLVPLTCRKHMDSVMPSQEPPVDDKNEDADLPSEETDGIAYISSSRKHDSIKDDSEDLKPVIDGMDGIKISQGLGLQDFDLIRVIGRGSYAKVLLVRLKKNDQIYAMKVVKKELVHDDEDIDWVQTEKHVFEQASSNPFLVGLHSCFQTTSRLFLVIEYVNGGDLMFHMQRQRKLPEEHARFYAAEICIALNFLHERGIIYRDLKLDNVLLDADGHIKLTDYGMCKEGLGPGDTTSTFCGTPNYIAPEILRGEEYGFSVDWWALGVLMFEMMAGRSPFDIITDNPDMNTEDYLFQVILEKPIRIPRFLSVKASHVLKGFLNKDPKERLGCRPQTGFSDIKSHAFFRSIDWDLLEKKQALPPFQPQITDDYGLDNFDTQFTSEPVQLTPDDEDAIKRIDQSEFEGFEYINPLLLSTEESV
B8: PRKCQ (protein)
chain: MSPFLRIGLSNFDCGSCQSCQGEAVNPYCAVLVKEYVESENGQMYIQKKPTMYPPWDSTFDAHINKGRVMQIIVKGKNVDLISETTVELYSLAERCRKNNGKTEIWLELKPQGRMLMNARYFLEMSDTKDMNEFETEGFFALHQRRGAIKQAKVHHVKCHEFTATFFPQPTFCSVCHEFVWGLNKQGYQCRQCNAAIHKKCIDKVIAKCTGSAINSRETMFHKERFKIDMPHRFKVYNYKSPTFCEHCGTLLWGLARQGLKCDACGMNVHHRCQTKVANLCGINQKLMAEALAMIESTQQARCLRDTEQIFREGPVEIGLPCSIKNEARPPCLPTPGKREPQGISWESPLDEVDKMCHLPEPELNKERPSLQIKLKIEDFILHKMLGKGSFGKVFLAEFKKTNQFFAIKALKKDVVLMDDDVECTMVEKRVLSLAWEHPFLTHMFCTFQTKENLFFVMEYLNGGDLMYHIQSCHKFDLSRATFYAAEIILGLQFLHSKGIVYRDLKLDNILLDKDGHIKIADFGMCKENMLGDAKTNTFCGTPDYIAPEILLGQKYNHSVDWWSFGVLLYEMLIGQSPFHGQDEEELFHSIRMDNPFYPRWLEKEAKDLLVKLFVREPEKRLGVRGDIRQHPLFREINWEELERKEIDPPFRPKVKSPFDCSNFDKEFLNEKPRLSFADRALINSMDQNMFRNFSFMNPGMERLIS

Target: T1, Bovine, dephosphorylated, Myelin Basic Protein (MBP), P02687
T1 chain: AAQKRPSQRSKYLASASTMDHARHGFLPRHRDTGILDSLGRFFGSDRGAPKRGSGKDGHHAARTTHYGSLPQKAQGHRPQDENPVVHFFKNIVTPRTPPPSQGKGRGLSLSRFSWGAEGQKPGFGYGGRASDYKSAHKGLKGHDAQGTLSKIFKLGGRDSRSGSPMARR

Row | Protein | MBP Kinase Activity
1 | B1 | Strong
2 | B2 | Strong
3 | B3 | Strong
4 | B4 | Strong
5 | B5 | Weak
6 | B6 | Strong
7 | B7 | Strong
8 | B8 | Strong
